# Measurements: patent US20150337037A1 (MSM PROTEIN TECHNOLOGIES, published 2015)
# Experiments:
# cynomolgus monkey CCR6 [1] = target: T1, cynomolgus monkey CCR6 (cynomolgus monkey (Macaca Fascicularis)); assay: flow cytometry on cells expressing the target, IgG1 titration, anti-human Fc-PE
# T1 construct: whole, on cells; gene derived from a total RNA library; also called CCR6 cyno; cyno CCR6
# [2] = target: T2, human chemokine receptor CCR6 (human, UniProt P51684 1-374); assay: as above
# T2 construct: whole, on cells; gene was synthesized (codon-optimized); a C-terminal tag may be present on the expressed protein; also called CCR6 human; human CCR6
# T2 sequence (looked up): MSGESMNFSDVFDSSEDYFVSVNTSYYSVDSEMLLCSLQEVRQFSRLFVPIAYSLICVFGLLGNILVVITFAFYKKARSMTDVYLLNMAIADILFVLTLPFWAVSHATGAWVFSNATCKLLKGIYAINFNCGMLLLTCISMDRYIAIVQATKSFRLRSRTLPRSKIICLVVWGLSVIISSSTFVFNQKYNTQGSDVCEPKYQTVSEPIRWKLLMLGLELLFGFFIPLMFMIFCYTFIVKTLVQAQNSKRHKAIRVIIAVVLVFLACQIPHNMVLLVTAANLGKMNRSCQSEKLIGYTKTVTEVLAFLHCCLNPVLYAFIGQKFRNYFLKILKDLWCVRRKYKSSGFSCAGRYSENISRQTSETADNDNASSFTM
# mouse CCR6 [3] = target: T3, mouse CCR6 (mouse, UniProt O54689 1-367); assay: as above
# T3 construct: whole, on cells; gene derived from a cDNA library; also called CCR6 mouse
# T3 sequence (looked up): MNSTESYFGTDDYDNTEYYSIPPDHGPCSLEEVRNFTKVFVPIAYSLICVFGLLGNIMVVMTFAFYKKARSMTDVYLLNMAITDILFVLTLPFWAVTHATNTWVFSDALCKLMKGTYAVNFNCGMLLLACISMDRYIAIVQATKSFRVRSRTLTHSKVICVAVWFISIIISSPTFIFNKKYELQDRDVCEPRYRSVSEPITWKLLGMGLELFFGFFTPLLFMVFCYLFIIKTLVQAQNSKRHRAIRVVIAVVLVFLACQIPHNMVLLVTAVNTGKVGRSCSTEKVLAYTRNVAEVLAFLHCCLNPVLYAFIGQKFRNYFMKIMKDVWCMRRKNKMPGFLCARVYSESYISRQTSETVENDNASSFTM
# human CXCR6 = target: T4, human CXCR6 (human, UniProt O00574 1-342); assay: flow cytometry on GPCR-expressing cell panel
# T4 construct: whole, on cells
# cynomolgus monkey CCR6 [4] = target: T1, cynomolgus monkey CCR6; assay: flow cytometry on cells expressing the target, IgG1 titration (repeat of Table 2)
# [5] = target: T2, human chemokine receptor CCR6; assay: as above
# mouse CCR6 [6] = target: T3, mouse CCR6; assay: as above
# [7] = target: T2, human chemokine receptor CCR6; assay: cell-based or functional assay
# [8] = target: T2, human chemokine receptor CCR6; assay: cell-based or functional assay; remark: listed apart in the source
# mouse CCR6 [9] = target: T3, mouse CCR6; assay: flow cytometry on CHO cells expressing mouse CCR6
# [10] = target: T2, human chemokine receptor CCR6; assay: flow cytometry on R1610 cells expressing human CCR6, IgG1 titration, anti-human Fc-PE
# cynomolgus monkey CCR6 [11] = target: T1, cynomolgus monkey CCR6; assay: flow cytometry on cells expressing the target, antibody titration
# [12] = target: T2, human chemokine receptor CCR6; assay: as above
# mouse CCR6 [13] = target: T3, mouse CCR6; assay: flow cytometry on cells expressing mouse CCR6
# T4 sequence (O00574 whole entry): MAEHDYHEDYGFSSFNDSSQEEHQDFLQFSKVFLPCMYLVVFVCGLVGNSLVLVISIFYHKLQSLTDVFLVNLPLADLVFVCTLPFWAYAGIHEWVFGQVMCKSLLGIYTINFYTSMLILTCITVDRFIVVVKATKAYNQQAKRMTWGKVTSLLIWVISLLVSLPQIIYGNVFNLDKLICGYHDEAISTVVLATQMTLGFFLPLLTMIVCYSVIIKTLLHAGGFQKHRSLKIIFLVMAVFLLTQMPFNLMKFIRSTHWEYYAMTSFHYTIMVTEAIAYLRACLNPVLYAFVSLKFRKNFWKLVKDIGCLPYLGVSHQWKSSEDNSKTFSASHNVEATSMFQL
Binder,EC50 (cynomolgus monkey CCR6 [1]),EC50 [2],EC50 (mouse CCR6 [3]),binding result (human CXCR6),EC50 (cynomolgus monkey CCR6 [4]),EC50 [5],EC50 (mouse CCR6 [6]),"IC50, nM CCL20-Ca-Flux [7]","Ca-Flux IC50, nM CCR6/CCL20 [8]",binding result (mouse CCR6 [9]),EC50 [10],EC50 (cynomolgus monkey CCR6 [11]),EC50 [12],binding result (mouse CCR6 [13])
"MSM-R621 IgG1 (antibody, V domains shown, Fully human IgG1) VH: EVQLLESGGGLVQPGGSLRLSCAASGFTFTTYYMHWVRQAPGKGLEWVSGIGPRGSWTGYADSVKGRFTISRDNSKNTLYLQMNSLRAEDTAVYYCARGRALVSNYSGLDYWGQGTLVTVSS VL: not shown",2.2 nM,1.5 nM,30 nM,binds,2.2 nM,1.5 nM,30 nM,,,,,,,
"MSM-R607 IgG1 (antibody, V domains shown, Fully human IgG1) VH: EVQLLESGGGLVQPGGSLRLSCAASGFTFSSYYMHWVRQAPGKGLEWVSLIAPANSDTYYADSVKGRFTISRDNSKNTLYLQMNSLRAEDTAVYYCARSSYTRHSSKRGMDYWGQGTLVTVSS VL: EIVLTQSPGTLSLSPGERATLSCRASQSVSSSYLAWYQQKPGQAPRLLIYGASSRATGIPDRFSGSGSGTDFTLTISRLEPEDFAVYYCQQAAYSPITFGQGTKVEIKR",2 nM,1.2 nM,1 nM,binds,2 nM,1.2 nM,1 nM,13.5 nM,13.5 nM,,,,,
"MSM-R610 IgG1 (antibody, V domains shown, Fully human IgG1; also called MSM R610.46) VH: EVQLLESGGGLVQPGGSLRLSCAASGFTFTGSSMSWVRQAPGKGLEWVSLISSRGSYTYYADSVKGRFTISRDNSKNTLYLQMNSLRAEDTAVYYCARSYAYQYRGLDYWGQGTLVTVSS VL: EIVLTQSPGTLSLSPGERATLSCRASQSVSSSYLAWYQQKPGQAPRLLIYGASSRATGIPDRFSGSGSGTDFTLTISRLEPEDFAVYYCQQNRTSPITFGQGTKVEIKR",> 100 nM,> 100 nM,,,> 100 nM,> 100 nM,,,,no binding,,,,
"MSM-R609 IgG1 (antibody, V domains shown, Fully human IgG1) VH: EVQLLESGGGLVQPGGSLRLSCAASGFTFTASYMSWVRQAPGKGLEWVSNISPKYGNTYYADSVKGRFTISRDNSKNTLYLQMNSLRAEDTAVYYCARSIRSAKYSYYGIDYWGQGTLVTVSS VL: EIVLTQSPGTLSLSPGERATLSCRASQSVSSSYLAWYQQKPGQAPRLLIYGASSRATGIPDRFSGSGSGTDFTLTISRLEPEDFAVYYCQQSASAPVTFGQGTKVEIKR",1.6 nM,1 nM,,,1.6 nM,1 nM,,,,,,,,
"MSM-R615 IgG1 (antibody, V domains shown, Fully human IgG1) VH: EVQLLESGGGLVQPGGSLRLSCAASGFTFSSYYMHWVRQTPGKGLEWVSIISPWSSSTYYADSVKGRFTISRDNSKNTLYLQMNSLRAEDTAVYYCARSSYSWGESYKRAIDYWGQGTLVTVSS VL: EIVLTQSPGTLSLSHGERATLSCRASQSVSSSYLAWYQQKPGQAPRLLIYGASSRATGIPDRFSGSGSGTDFTLTISRLEPEDFAVYYCQQSYYSPVTFGQGTKVEIKR",2.5 nM,,,,2.5 nM,1 nM,,,,no binding,1 nM,,,
"MSM-R625 (antibody, human IgG1, kappa, V domains shown) VH: not shown VL: EIVLTQSPGTLSLSPGERATLSCRASQSVSSSYLAWYQQKPGQAPRLLIYGASSRATGIPDRFSGSGSGTDFTLTISRLEPEDFAVYYCQQYSYAPITFGQGTKVEIKR",,,,,,,,,,,,2.6 nM,1.6 nM,no binding
"MSM-R604 IgG1 (antibody, V domains shown, Fully human IgG1) VH: EVQLLESGGGLVQPGGSLRLSCAASGFTFTNYSMHWVRQAPGKGLEWVSLISPYSSSTYYADSMKGRFTISRDNSKNTLYLQMNSLRAEDTAVYYCARGRYYGAYSYPGFDYWGQGTLVTVSS VL: EIVLTQSPGTLSLSPGERATLSCRASQSVSSSYLAWYQQKPGQAPRLLIYGASSRATGIPDRFSGSGSGTDFTLTISRLEPEDFAVYYCQQSAKNPLTFGQGTKVEIKR",1.5 nM,2.9 nM,,,1.5 nM,2.9 nM,,,,no binding,,,,
"MSM-R622 IgG1 (antibody, V domains shown, Fully human IgG1; also called MSM R622.46) VH: EVQLLESGGGLVQPGGSLRLSCAASGFTFSKNSMSWVRQAPGKGLEWVSLITSYSGYTYYADSVKGRFTISRDNSKNTLYLQMNSLRAEDTAVYYCARSYAYQYRGLDYWGQGTLVTVSS VL: not shown",,1.9 nM,,,,1.9 nM,,,,,,,,
"MSM-R619 IgG1 (antibody, V domains shown, Fully human IgG1; also called MSM R19) VH: EVQLLESGGGLVQPGGSLRLSCAASGFTFSNYYIHWVRQAPGKGLEWVSLISPGGSTTYYADSVKGRFTISRDNSKNTLYLQMNSLRAEDTAVYYCARGRTWWSTYYSGIDYWGQGTLVTVSS VL: not shown",2 nM,1.7 nM,,,2 nM,1.7 nM,,,,no binding,,,,
"MSM-R612 IgG1 (antibody, V domains shown, Fully human IgG1) VH: EVQLLGSGGGLVQPGGSLRLSCAASGFTFTTYYMHWVRQAPGKGLEWVSLISPNAGNTYYADSVKGRFTISRDNSKNTLYLQMNSLRAEDTAVYYCARGRSRAGTSGMDYWGQGTLVTVSS VL: not shown",1.6 nM,1 nM,1.5 nM,,1.6 nM,1 nM,1.5 nM,,,,,,,
"MSM-R633 (antibody, V domains shown) VH: EVQLLESGGGLVQPGGSLRLSCAASGFTFTSSYMAWVRQAPGKGLEWVSSIAPSSGSTYYADSVKGRFTISRDNSKNTLYLQMNSLRAEDTAVYYCARSRWEWYYHSSHGLDYWGQGTLVTVSS VL: EIVLTQSPGTLSLSPGERATLSCRASQSVSSSYLAWYQQKPGQAPRLLIYGASSRATDIPDRFSGSGSGTDFTLTISRLEPEDFAVYYCQQSYSDPITFGQGTKVEIK",,,,,,,,,,,,7.5 nM,7 nM,no binding
"MSM-R606 IgG1 (antibody, Fully human IgG1) heavy: not shown light: EIVLTQSPGTLSLSPGERATLSCRASQSVSSSYLAWYQQKPGQAPRLLIYGASSRATGIPDRFSGSGSGTDFTLTISRLEPEDFAVYYCQQSSYSPITFGQGTKVEIKRTVAAPSVFIFPPSDEQLKSGTASVVCLLNNFYPREAKVQWKVDNALQSGNSQESVTEQDSKDSTYSLSSTLTLSKADYEKHKVYACEVTHQGLSSPVTKSFNRGEC",1.7 nM,1.4 nM,0.7 nM,,1.7 nM,1.4 nM,0.7 nM,8.3 nM,8.3 nM,,,,,
"MSM-R608 IgG1 (antibody, Fully human IgG1) heavy: not shown light: EIVLTQSPGTLSLSPGERATLSCRASQSVSSSYLAWYQQKPGQAPRLLIYGASSRATGIPDRFSGSGSGTDFTLTISRLEPEDFAVYYCQQSYYAPVTFGQGTKVEIKRTVAAPSVFIFPPSDEQLKSGTASVVCLLNNFYPREAKVQWKVDNALQSGNSQESVTEQDSKDSTYSLSSTLTLSKADYEKHKVYACEVTHQGLSSPVTKSFNRGEC",2.5 nM,2 nM,1 nM,,2.5 nM,2 nM,1 nM,,,,,,,
"MSM-R617 IgG1 (antibody, V domains shown, Fully human IgG1; also called MSMR617.46) VH: EVQLLESGGGLVQPGGSLRLSCAASGFTFSGYAMHWVRQAPGKGLEWVSSIGSRRGFTSYADSVKGRFTISRDNSKNTLYLQMNSLRAEDTAVYYCARSYAYQYRGLDYWGQGTLVTVSS VL: EIVLTQSPGTLSLSPGERATLSCRASQSVSSSYLAWYQQKPGQAPRLLIYGASSRATGIPDRFSGSGSGTDFTLTISRLEPEDFAVYYCQQRSSVTFGQGTKVEIKR",1.9 nM,1.5 nM,,,1.9 nM,1.5 nM,,,,,,,,
